Blank lines part the entries; values can stand above or below the binder they belong to.
Legend:
Test in all cases: cryo-EM structure
[1] = target: T1, Med18 (S. pombe Mediator subunit) (S. pombe, UniProt O14198 1-207)
T1 sequence (looked up): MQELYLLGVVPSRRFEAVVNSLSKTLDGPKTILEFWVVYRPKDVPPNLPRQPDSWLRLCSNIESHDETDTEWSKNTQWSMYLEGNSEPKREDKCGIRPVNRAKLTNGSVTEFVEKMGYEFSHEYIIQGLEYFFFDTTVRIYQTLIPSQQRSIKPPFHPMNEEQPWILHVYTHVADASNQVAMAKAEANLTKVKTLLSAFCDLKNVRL

[2] = target: T2, Med14 (S. pombe Mediator subunit) (S. pombe, UniProt Q9P7Y4 1-879)
T2 sequence (looked up): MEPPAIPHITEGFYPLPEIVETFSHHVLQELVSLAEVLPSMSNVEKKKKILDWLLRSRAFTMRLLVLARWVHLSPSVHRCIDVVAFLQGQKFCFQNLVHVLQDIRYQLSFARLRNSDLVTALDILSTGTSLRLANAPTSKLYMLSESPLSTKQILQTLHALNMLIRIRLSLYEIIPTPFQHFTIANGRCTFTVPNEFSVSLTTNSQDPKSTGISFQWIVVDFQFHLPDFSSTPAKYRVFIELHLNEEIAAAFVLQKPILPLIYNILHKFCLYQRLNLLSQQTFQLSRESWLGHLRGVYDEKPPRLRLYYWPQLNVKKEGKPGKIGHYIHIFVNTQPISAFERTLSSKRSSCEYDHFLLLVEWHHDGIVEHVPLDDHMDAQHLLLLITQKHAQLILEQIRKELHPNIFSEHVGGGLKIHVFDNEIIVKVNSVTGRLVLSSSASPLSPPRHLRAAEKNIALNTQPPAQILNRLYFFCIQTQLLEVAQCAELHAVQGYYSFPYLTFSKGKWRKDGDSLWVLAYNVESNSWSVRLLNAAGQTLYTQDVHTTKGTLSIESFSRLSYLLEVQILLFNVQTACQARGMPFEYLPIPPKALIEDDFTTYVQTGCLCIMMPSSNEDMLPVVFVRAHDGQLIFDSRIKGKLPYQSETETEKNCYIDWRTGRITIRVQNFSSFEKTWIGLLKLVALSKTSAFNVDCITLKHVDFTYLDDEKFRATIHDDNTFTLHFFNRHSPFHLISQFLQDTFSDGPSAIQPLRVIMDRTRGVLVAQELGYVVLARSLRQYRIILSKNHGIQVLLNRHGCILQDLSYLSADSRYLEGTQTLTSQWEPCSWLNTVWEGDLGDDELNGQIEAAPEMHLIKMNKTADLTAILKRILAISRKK

[3] = target: T3, Med17 (S. pombe Mediator subunit) (S. pombe, UniProt P87306 1-545)
T3 sequence (looked up): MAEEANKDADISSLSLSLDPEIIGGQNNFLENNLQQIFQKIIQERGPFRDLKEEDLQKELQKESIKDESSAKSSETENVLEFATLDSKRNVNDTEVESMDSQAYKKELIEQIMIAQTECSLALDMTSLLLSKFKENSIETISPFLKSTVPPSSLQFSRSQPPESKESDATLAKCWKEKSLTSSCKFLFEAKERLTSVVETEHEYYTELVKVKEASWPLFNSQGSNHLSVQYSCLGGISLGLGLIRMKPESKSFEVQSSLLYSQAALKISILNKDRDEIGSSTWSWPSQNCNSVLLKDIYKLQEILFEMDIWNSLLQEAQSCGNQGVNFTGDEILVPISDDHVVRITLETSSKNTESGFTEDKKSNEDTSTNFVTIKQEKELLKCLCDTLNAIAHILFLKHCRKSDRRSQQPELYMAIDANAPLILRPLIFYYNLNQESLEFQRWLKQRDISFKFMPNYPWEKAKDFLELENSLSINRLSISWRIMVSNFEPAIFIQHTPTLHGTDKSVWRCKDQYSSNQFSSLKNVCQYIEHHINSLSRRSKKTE

B1: Med20 (S. pombe Mediator subunit) (natural protein, UniProt Q10317 1-193, looked up)
chain: MPVHGVIYYSSPSMATFLSPAQDNLVRTYFAQHLKKWVVQYKLYRNAVTPKTLEFLKQNINPSMLACVDEATMIDAEPELEDIIVRTKLWNFRQSFTIEGSIYEVGSFKVAIANVLQKSVWKGILFHVTYDGTESVDLARPIIQEFFLKCFLQNNKSVTPVYESFFNQPRHSLDSKLLLQLFKQRIDTVSQRT
binding result [1]: binds

B4: Med31 (S. pombe Mediator subunit) (natural protein, UniProt Q9USH1 1-139, looked up)
chain: METKWLLSKVPDDKSRFEIELEFVQMLSNPWYLNFLAQHKYFEDEAFLQYLEYMEYWREPEYVKFIIYPTCLHMLTLLKNPQFRNDISRADLSKQVNDEIYYEWLGKGLQQYGSADDATLSQPQQEEDEKKVDVKKENE
binding result [3]: binds

Continued, values first:

binding result [2]: binds
binding result [3]: binds
B2: Med27 (S. pombe Mediator subunit) (natural protein, UniProt Q10477 1-273, looked up)
chain: MSLEEQRTRDELKHKLLDLNQLHEQLAELRTICPSLLKLLHPETGTSRKFEKSAQEAIEKVNSFYTHLKSSQNVFDYAEKSLQADSSNLLPTYLYNSEDLSNDTENNETKSINGKSALDLKEPHHSELHDNDNFQNSDINIESFKGDIEASGSILTTHENKSFTLKLANELEFIFFHDTRGKFSVYCSSSKDDAITFSINRNNNFLGNLWSLMPKILDYQHLYSKPCDFCKSLISPVYLELPSVRRNANSTVKPTSKDILALHAECVPAQSDL

binding result [3]: binds
B3: Med7-TAP (S. pombe Mediator subunit) (natural protein, UniProt O60104 1-376, looked up)
chain: MEPNEGVQLFSAFPPPPPYYKLFTRENIEKVISNMEKEAKHEDDANTLQPKTEEEIESLAKLFKKPSCLTSGTYQMFGDTWRLDEAIPSLKEFGIPELYKDIKDGEDEIEVVEYDPKSNAIVGTSFTRVHDYDKNSPIENEKILEDDQHTAMKEKDNESDKTMKDVEEKTEPSLKKEEEDIQMKEPLDSQDTGAVSASSVNEGFRADQKSKDGETSDLIKIPRRAYELRFLSRSLMLNFLELLGIMAKAPEQFPSKVENIRVLLLNLHHLINDYRPHQSRESLIMLLEKQLKHEESQVELLRTHNRQMTETLEKYKSLDFNMEKEGDVIQQLKSSIKKPLSGAEDEQKSRSMFSKNDEKLKKSLELMEDVIKRDLS

Source: publication PMC6692119 (Nature, 2017)
